Assay results from the RNAGym collection of RNA variant scans (doi:10.7554/elife.80360).

B1: Twister Ribozyme (parent)
chain: AACACUGCCAAUGCCGGUCCCAAGCCCGGAUAAAAGUGGAGGGGGCGG

Variants of: B1
Experiment: self-cleavage, relative activity (ratio to wild type); higher = more cleavage; co-transcriptional

Variant | self-cleavage
C5G C46U | 0.77
C5G C46A | 0.776
C5U A22C | 0.963
C5U A22U | 0.526
C5U C26U | 0.0759
C5U C26A | 0.148
C5U C26G | 0.0996
C5A C15A | 0.214
C5A C15G | 0.0768
C5U C20G | 0.102
C5G G16C | 0.0784
C5G G16U | 0.0938
A4U G28A | 0.0702
U6A G36U | 0.202
C5A G47A | 0.523
C5A G47C | 0.199
U6A G45U | 0.695
U6A U12A | 1.13
C5A A32G | 0.542
C5G C26U | 0.104
C5G C26A | 0.126
A4U U31G | 0.161
A4U U31A | 0.143
C5G G17A | 0.0746

Variant | self-cleavage
U6A A10G | 1.22
U6A A10U | 1
C5U C8A | 0.193
C5U C8G | 0.132
C5A U12C | 0.462
C5A U12A | 0.764
C5A A11G | 0.479
A4U G17A | 0.0705
A4U G17U | 0.0471
U6A G39C | 0.183
U6A G39A | 0.255
C5A C19U | 0.424
C5A C19A | 0.0624
C5U G43A | 0.141
C5U G48C | 0.883
U6A A40U | 0.116
A4U G44U | 0.146
A4U G44A | 0.248
A4U G44C | 0.105
C5A G48C | 0.53
U6A C14G | 0.124
C5U G42C | 0.287
C5U G42A | 0.184
C5U G42U | 0.134

Variant | self-cleavage
C5G C9A | 0.167
C5G C9G | 0.125
C5G G48U | 0.627
C5A G45A | 0.532
C5A G45C | 0.16
U6A C9G | 0.244
A4U G45A | 0.105
A4U G45C | 0.0951
A4U G45U | 0.124
C5G C15G | 0.0337
U6A G48U | 0.782
U6A G48A | 0.76
C5G U37A | 0.404
C5U A34U | 0.631
C5U A34G | 0.511
C5A A30U | 0.498
C5G A10U | 0.69
C5G A10G | 1.17
C5G G7C | 0.0519
C5A G36A | 0.583
C5A G36U | 0.689
U6A G43A | 0.223
U6A G44A | 0.943
U6A G44U | 0.925

Variant | self-cleavage
U6A G44C | 0.874
U6A C20G | 0.0822
U6A C20A | 0.0593
U6C A23U | 0.0534
C5G U31C | 0.584
C5G U31G | 0.757
C5G U31A | 0.634
C5G A11G | 0.696
C5G A11U | 0.665
C5A G43C | 0.118
U6A A32G | 0.987
U6A A32U | 0.862
A4U G38C | 0.252
A4U G38U | 0.138
C5G C25U | 0.411
U6C | 0.596
U6A | 1.03
U6C C46A | 0.65
C5G G13C | 0.0798
C5G G13A | 0.115
A4U G13A | 0.0571
C5A U18C | 0.106
A4U G29C | 0.0635
A4U G29U | 0.094

Variant | self-cleavage
U6A G13C | 0.072
U6A G13A | 0.195
C5A A23C | 0.0937
C5A A23G | 0.0488
C5G G45C | 0.222
C5U C21A | 0.126
C5U C21U | 0.0809
C5U G24C | 0.0979
C5U G24A | 0.058
C5A U31A | 0.438
C5A U31C | 0.653
C5A G28A | 0.232
C5A G28U | 0.282
C5A C14G | 0.0565
A4U U18C | 0.027
A4U U18G | 0.0369
A4U U18A | 0.0531
C5U C27U | 0.483
C5U A32G | 0.795
C5G A32G | 0.749
C5G C14U | 0.793
C5U G29A | 0.739
C5U C9G | 0.342
U6C A32G | 0.518

Variant | self-cleavage
C5U G36U | 0.644
C5A U6G | 0.154
C5A U6C | 0.112
C5A U6A | 0.0843
U6A A11U | 1.03
C5G C27G | 0.0623
C5A C26G | 0.0639
C5A C26U | 0.0777
C5A C26A | 0.1
C5A C8G | 0.106
U6A U18A | 0.174
U6A U18G | 0.0743
C5U C46U | 0.825
C5U C46G | 0.776
C5G G36C | 0.966
C5G G36A | 0.732
C5G A23C | 0.0471
C5G A23U | 0.136
C5G A23G | 0.133
U6A G24C | 0.399
U6A G24U | 0.0898
U6A C15U | 0.649
U6A C26G | 0.132
U6A C26A | 0.144

Variant | self-cleavage
A4U G16A | 0.0873
U6A U37C | 0.124
U6A U37G | 0.328
U6C A11C | 0.292
U6C A11U | 0.673
U6C A11G | 0.535
C5A C9G | 0.0413
U6C G7A | 0.0638
C5G A22U | 0.401
C5G A22G | 0.137
U6C A33C | 0.12
U6C A33U | 0.319
C5U C15G | 0.0698
C5U C15A | 0.385
C5U C15U | 0.762
C5U G45A | 0.605
A4U U6G | 0.0301
A4U U6C | 0.0522
C5G A35U | 0.637
U6C A40G | 0.0788
U6A G41A | 0.203
U6A G41C | 0.182
U6A G41U | 0.204
